The values below come from article PMC12080732 (mAbs, 2025).

Numbering of substitutions follows the chain as printed.

This test deals with active trimeric human TNFα (human, UniProt P01375 77-233). The experiment in a line: SPR. In general terms: Surface plasmon resonance follows binding to a sensor surface in real time, without labels.
Chain of active trimeric human TNFα (P01375 77-233): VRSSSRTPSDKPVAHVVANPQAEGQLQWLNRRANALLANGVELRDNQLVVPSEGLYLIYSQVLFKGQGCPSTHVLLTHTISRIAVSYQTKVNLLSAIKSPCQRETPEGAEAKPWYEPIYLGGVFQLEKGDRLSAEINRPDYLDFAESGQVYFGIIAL

B1: TNFI-Nb2 (VHH)
VHH: QVQLVESGGGLVQPGGSLRLSCAASGFAFNDHWMYWVRQAPGKELEWVSEINTNGLITKYADFVKGRFTVSRDNAKNTLYLQMNSLEPEDTAVYSCSRNQIGTLRGQGTQVTVSS
B1 returned a Kd of 0.077 nM and a koff of 2.87e-05 s⁻¹.

B2: TNFI-Nb1 (VHH)
VHH: B1 VHH with Q1E, N84D, E87R
Molecule B2 displayed a Kd of 0.219 nM.

B3: TNFI-Nb3 (VHH)
VHH: B1 VHH with K76E
In turn, B3 returned a Kd of 0.392 nM.

As a reminder, the Kd is the constant that tells how readily two partners part at equilibrium. Low values mean tighter binding, high ones weaker binding. A word on the koff: it is the first-order rate constant of dissociation. Low readings indicate slow dissociation, high ones fast dissociation.
